The target in assay [1] is T1, human tenascin-R rCd4-His-FBG (rat; human, UniProt P05540 207-392, limits assumed).
T1 construct: domain: domains 3 and 4; C-terminal FBG fusion; also called Hu TNR; human TNR rCd4-His-FBG; not shown: 6His tag
T1 sequence (chain (part 1 of 2)): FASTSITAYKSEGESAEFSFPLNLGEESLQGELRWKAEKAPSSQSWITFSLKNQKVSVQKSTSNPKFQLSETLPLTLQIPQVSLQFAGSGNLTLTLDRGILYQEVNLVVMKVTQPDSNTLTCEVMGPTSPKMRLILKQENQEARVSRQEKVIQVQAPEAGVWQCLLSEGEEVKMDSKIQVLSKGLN
T1 sequence (chain (part 2 of 2)): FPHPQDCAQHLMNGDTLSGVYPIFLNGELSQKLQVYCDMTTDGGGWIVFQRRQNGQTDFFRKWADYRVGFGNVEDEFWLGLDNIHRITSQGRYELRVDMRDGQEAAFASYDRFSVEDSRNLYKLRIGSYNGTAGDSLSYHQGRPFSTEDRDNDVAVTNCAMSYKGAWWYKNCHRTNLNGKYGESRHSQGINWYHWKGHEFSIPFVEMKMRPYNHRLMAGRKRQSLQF
In words: SPR off-rate screen, captured IgG4 supernatant, 25 C; SPR off-rate screen, native antigen at 100 nM, IgG4 in supernatant, 25 C. As to the method:
The 31 scFv of interest were sub-cloned into a human IgG4 expression vector for generation of antibodies as human IgG4 with a hinge-stabilising mutation (S241P; Angal et al, 1993). […] Briefly, surface plasmon resonance (SPR) experiments were performed using a BIAcore T100 instrument and followed the protocol according to the Human antibody capture kit protocol (GE, BR-1008-39). For off-rate screening, 10,000 response units (RU) of anti-human Fc IgG (GE, BR-1008-39) was immobilised on flow-cells (FC1 and FC2) of a Series 5 CM5 dextran sensor chip (BR-1005-30) using EDC/NHS cross-linking chemistry according to the amine coupling kit protocol (GE, BR-1000-50). Culture supernatants containing expressed IgG4 were diluted 1:2 with 2×PBS-T and injected into FC2 (flowrate 5 μl/min, 60 s contact time) to enable antibody capture at 25° C. […] A fixed concentration of antigen (15 nM of human and mouse TNC rCd4-His-FBG and 100 nM of human TNR rCd4-His-FBG) was injected with a flow-path via FC 1 (reference flow cell) and FC 2 (antibody capture flow cell), with a flow rate of 30 μl/min, and the association and dissociation phases measured over 1 and 5 min time periods, respectively. […] Off rates were determined by reference cell subtraction and fitting the sensogram experimental data assuming a 1:1 interaction using BIAevaluation software (GE, BR-1005-97).

Assay [2] deals with T2, human tenascin-C rCd4-His-FBG (rat; human, UniProt P05540 207-392, limits assumed).
T2 construct: domain: domains 3 and 4; C-terminal FBG fusion; biotinylated in the ELISA and HTRF screens; also called Hu TNC; human TNC rCd4-His-FBG; not shown: 6His tag
T2 sequence (chain (part 1 of 2)): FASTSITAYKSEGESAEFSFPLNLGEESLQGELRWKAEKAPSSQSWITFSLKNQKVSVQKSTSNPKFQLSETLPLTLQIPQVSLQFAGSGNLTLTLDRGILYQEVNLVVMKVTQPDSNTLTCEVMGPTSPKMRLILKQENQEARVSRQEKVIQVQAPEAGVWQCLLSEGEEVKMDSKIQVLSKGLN
T2 sequence (chain (part 2 of 2)): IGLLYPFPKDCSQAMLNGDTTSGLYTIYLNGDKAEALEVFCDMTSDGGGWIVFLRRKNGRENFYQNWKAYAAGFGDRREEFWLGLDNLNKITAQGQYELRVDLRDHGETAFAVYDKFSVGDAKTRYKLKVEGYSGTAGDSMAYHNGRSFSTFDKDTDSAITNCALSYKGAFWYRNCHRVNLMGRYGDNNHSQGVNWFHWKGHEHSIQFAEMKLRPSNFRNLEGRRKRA
Nature of the assay: SPR, captured purified IgG4, 37 C. As to the method:
(§1) Detailed kinetic parameters were evaluated for the 9 prioritised IgG4 antibodies. Binding characteristics were determined for interaction with human, rat and dog TNC rCD4-His-FBG, and human TNR rCD4-His-FBG. Kinetic assays followed essentially the same protocols as for the off-rate determinations described above, with some modifications as follows. […] Purified anti-FBG IgG4 was diluted to a concentration of 3.5 nM in PBS, pH 7.4, 0.05% Tween-20 and injected into FC2 at a flow rate of 10 μl/min, 60 s contact time. […] Antigens were prepared by doubling dilution in PBS, pH 7.4, 0.05% Tween-20 (highest concentration 100 nM except mouse rCD4-His-FBG which was 7 nM). Assays were performed at 37° C. (30 μl/min, 120 s contact time; mouse rCD4-His-FBGFBG 10 μl/min, 60 s contact time), with both the flow cell and injection chamber equilibrated to this temperature. As before, kinetic parameters were determined by reference cell subtraction and fitting the sensogram experimental data assuming a 1:1 interaction using BIAevaluation software (GE, BR-1005-97).
(In SPR one partner is held on a chip, and binding of the other changes the refractive index at the surface.)

The target in assay [3] is T3, mouse tenascin-C rCd4-His-FBG (rat; mouse, UniProt P05540 207-392, limits assumed).
T3 construct: domain: domains 3 and 4; C-terminal FBG fusion; biotinylated in the ELISA screen; also called Mu TNC; mouse TNC rCd4-His-FBG; not shown: 6His tag
T3 sequence (chain (part 1 of 2)): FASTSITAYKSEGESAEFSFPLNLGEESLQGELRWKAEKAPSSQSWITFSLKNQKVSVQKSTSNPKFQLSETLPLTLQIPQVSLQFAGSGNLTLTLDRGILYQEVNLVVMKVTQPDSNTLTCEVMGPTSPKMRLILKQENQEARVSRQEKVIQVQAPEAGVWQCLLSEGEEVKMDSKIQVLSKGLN
T3 sequence (chain (part 2 of 2)): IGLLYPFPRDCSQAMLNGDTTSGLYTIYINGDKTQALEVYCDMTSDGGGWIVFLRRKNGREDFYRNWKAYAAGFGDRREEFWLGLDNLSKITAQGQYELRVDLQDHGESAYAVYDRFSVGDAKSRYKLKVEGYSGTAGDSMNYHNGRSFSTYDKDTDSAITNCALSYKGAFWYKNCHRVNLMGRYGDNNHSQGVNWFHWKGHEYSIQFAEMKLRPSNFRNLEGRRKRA
In words: SPR, captured purified IgG4, 37 C. The method, then:
as §1

Assay [4] deals with T2, human tenascin-C rCd4-His-FBG. Nature of the assay: SPR off-rate screen, captured IgG4 supernatant, 25 C. In short, it runs like this:
(§2)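 SPR at 25 °C: IgG4 (S241P) from culture supernatant, diluted 1:2 in 2×PBS-T, captured on anti-human Fc surface; antigen injected at a fixed 15 nM (human and mouse TNC rCd4-His-FBG) or 100 nM (human TNR rCd4-His-FBG), 30 μl/min. Association 1 min, dissociation 5 min; off-rates from reference-subtracted 1:1 fits.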

The target in assay [5] is T3, mouse tenascin-C rCd4-His-FBG. The description is as above. The gist of the method: as §2
In the next assay the target is T4, human His-FBG (human, UniProt P24821 1974-2201).
T4 construct: non-citrullinated control, incubated in deimination buffer without PAD enzyme; also called unmodified His-FBG; not shown: His tag
T4 sequence: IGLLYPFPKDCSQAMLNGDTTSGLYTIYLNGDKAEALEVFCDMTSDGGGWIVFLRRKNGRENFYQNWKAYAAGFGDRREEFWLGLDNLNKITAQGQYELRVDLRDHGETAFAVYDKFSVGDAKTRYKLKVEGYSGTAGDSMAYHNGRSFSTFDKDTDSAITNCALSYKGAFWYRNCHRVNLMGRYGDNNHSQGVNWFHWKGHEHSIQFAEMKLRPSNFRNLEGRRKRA
Nature of the assay: SPR, captured IgG4, 25 C, mean of 3. As to the method:
(§3) Purified human His-FBG was citrullinated using either peptidylarginine deiminase 2 (PAD2; MQ-16.201-2.5, Modiquest, NL) or peptidylarginine deiminase 4 (PAD4; MQ-16.203-2.5, Modiquest, NL) according to the supplier's instructions. […] Aliquots of His-FBG in deimination buffer were incubated for 2 h at 37° C. in the absence of added PAD enzyme, for use as non-citrullinated control protein. Citrullinated and unmodified His-FBG proteins were used in SPR experiments as described below.
(§4) SPR experiments were performed on a BIAcore 3000 instrument. Anti-human IgG (GE Healthcare) was covalently coupled to the surface of a CM5 sensor chip using amino coupling chemistry. […] The flow rate was 5 μl/min in the immobilization experiments and 20 μl/min for kinetic analyses. The sensor chip surface was regenerated using 3 M MgCl₂. Data were analysed using BIAevaluation program 4.1 (GE Healthcare).

Assay [6] concerns the target T5, human His-FBG citrullinated with PAD2 (human, UniProt P24821 1974-2201, arginines citrullinated by peptidylarginine deiminase 2; positions not stated).
T5 construct: also called His-FBG + PAD2; citrullinated His-FBG; not shown: His tag
T5 sequence: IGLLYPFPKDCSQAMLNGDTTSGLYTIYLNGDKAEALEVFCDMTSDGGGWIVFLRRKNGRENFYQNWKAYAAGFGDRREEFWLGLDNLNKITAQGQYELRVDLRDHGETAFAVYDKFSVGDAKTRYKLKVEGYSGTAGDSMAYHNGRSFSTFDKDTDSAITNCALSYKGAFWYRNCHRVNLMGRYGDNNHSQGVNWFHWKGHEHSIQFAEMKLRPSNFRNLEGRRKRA
Nature of the assay: SPR, captured IgG4, 25 C, mean of 3. The method, then: as §3, §4

The target of assay [7] is T6, human His-FBG citrullinated with PAD4 (human, UniProt P24821 1974-2201, arginines citrullinated by peptidylarginine deiminase 4; positions not stated).
T6 construct: also called His-FBG + PAD4; citrullinated His-FBG; not shown: His tag
T6 sequence: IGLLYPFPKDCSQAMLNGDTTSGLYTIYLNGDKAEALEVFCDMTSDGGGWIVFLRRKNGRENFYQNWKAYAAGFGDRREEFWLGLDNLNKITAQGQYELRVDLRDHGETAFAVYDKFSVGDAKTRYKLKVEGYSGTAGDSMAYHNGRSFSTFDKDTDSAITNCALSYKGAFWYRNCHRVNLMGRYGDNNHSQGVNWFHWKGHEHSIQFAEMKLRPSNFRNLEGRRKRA
Nature of the assay: SPR, captured IgG4, 25 C, mean of 3. The method, then:
as §3, §4

B1: B12 human IgG4 (antibody, V domains shown)
VH: QVQLVESGGGLVQPGRSLRLSCAASGFTFDDYAMHWVRQAPGKGLEWVSGISGSGGSTYYADSVKGRFTISRDNAKNSLYLQMNSLRAEDTALYYCAKDISAVPDTFDIWGQGTMVTVSS
VL: DIQMTQSPASLPTPVGDRVTITCRASQYIQGFLNWYQQKPGKAPKLLIYDASNLETGVPSRFSGSGSGTDFTLTISSLQPEDFATYYCQQSYSTPQTFGQGTKVDIKR
notes: human IgG4 with hinge S241P; also called B12 parent; B12-hIgG4
On to B1, for which the koff – broadly, the rate constant with which the complex falls apart – is 0.1 s⁻¹ in assay [1]; 0.00112 s⁻¹ in assay [2]; 0.00138 s⁻¹ in assay [3]; 0.00015 s⁻¹ in assay [4]; 0.03 s⁻¹ in assay [5]; 0.00068 s⁻¹ in the assay with human His-FBG. Further, the figures for the dissociation rate constant (koff) in assay [6] and in assay [7] were 0.00096 s⁻¹ and 0.00078 s⁻¹, respectively. Also, the equilibrium dissociation constant (Kd) (in general, the concentration at which binding is half-saturated) came to 0.24 nM in assay [2]; 4.5 nM in assay [3]; 0.17 nM in the assay with human His-FBG; 0.32 nM in assay [6]; 0.32 nM in assay [7]. For the same molecule, the on-rate constant (kon) – broadly, the rate constant with which the complex forms – turned out to be 4.71e+06 M⁻¹ s⁻¹ in assay [2]; 300000 M⁻¹ s⁻¹ in assay [3]; 4.1e+06 M⁻¹ s⁻¹ with human His-FBG; 3e+06 M⁻¹ s⁻¹ in assay [6]; 2.6e+06 M⁻¹ s⁻¹ in assay [7].
